# Test results from the supplement of paper PMC10567573.
# B1: ZNF449 (parent)
# chain: YRHQRLHTGERPYECTVCKKRFTR
# Variants of: B1
# Experiment: protein stability index of a GFP-peptide fusion (GPS, HEK-293T) (PSI 1-6); higher = more stable
# Conditions: c terminus: a fixed tail appended
# 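Note: lentivirally expressed fusions sorted by FACS into six bins by GFP to DsRed ratio, PSI derived from sequencing read proportions per bin multiplied by bin number.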
row,Variant,protein stability index
1,YRHQRLHTGELPYECTVCKKRFTR [R11L],2.09
2,YRHQRLHTGENPYECTVCKKRFTR [R11N],2.1
3,YRHQRLHTGEKPYECTVCKKRFTR [R11K],2.59
4,YRHQRLHTGEVPYECTVCKKRFTR [R11V],1.85
5,YRHQRLHTGEQPYECTVCKKRFTR [R11Q],2.48
6,YRHQRLHTGEDPYECTVCKKRFTR [R11D],2.67
7,YRHQRLHTGEFPYECTVCKKRFTR [R11F],2.68
8,YRHQRLHTGEYPYECTVCKKRFTR [R11Y],2.76
9,YRHQRLHTGEMPYECTVCKKRFTR [R11M],1.79
10,YRHQRLHTGESPYECTVCKKRFTR [R11S],2.43
11,YRHQRVHTGERPYECTVCKKRFTR [L6V],2.17
12,YRHQRGHTGERPYECTVCKKRFTR [L6G],2.61
13,YRHQRYHTGERPYECTVCKKRFTR [L6Y],2.74
14,YRHQRRHTGERPYECTVCKKRFTR [L6R],2.7
15,YRHQRWHTGERPYECTVCKKRFTR [L6W],2.38
16,YRHQRQHTGERPYECTVCKKRFTR [L6Q],2.38
17,YRHQRCHTGERPYECTVCKKRFTR [L6C],3.06
18,YRHQRIHTGERPYECTVCKKRFTR [L6I],2.37
19,YRHQRSHTGERPYECTVCKKRFTR [L6S],2.38
20,YRHQRDHTGERPYECTVCKKRFTR [L6D],2.37
21,YRHQRNHTGERPYECTVCKKRFTR [L6N],2.63
22,YRHQRLVTGERPYECTVCKKRFTR [H7V],2.18
23,YRHQRLPTGERPYECTVCKKRFTR [H7P],1.84
24,YRHQRLSTGERPYECTVCKKRFTR [H7S],2.05

row,Variant,protein stability index
1,YRHQRLDTGERPYECTVCKKRFTR [H7D],1.92
2,YRHQRLTTGERPYECTVCKKRFTR [H7T],2.35
3,WRHQRLHTGERPYECTVCKKRFTR [Y1W],1.97
4,RRHQRLHTGERPYECTVCKKRFTR [Y1R],3.05
5,ARHQRLHTGERPYECTVCKKRFTR [Y1A],3.22
6,PRHQRLHTGERPYECTVCKKRFTR [Y1P],2.7
7,DRHQRLHTGERPYECTVCKKRFTR [Y1D],2.58
8,KRHQRLHTGERPYECTVCKKRFTR [Y1K],2.77
9,SRHQRLHTGERPYECTVCKKRFTR [Y1S],3.05
10,TRHQRLHTGERPYECTVCKKRFTR [Y1T],2.65
11,HRHQRLHTGERPYECTVCKKRFTR [Y1H],2.98
12,MRHQRLHTGERPYECTVCKKRFTR [Y1M],2.92
13,YRHQRLHTYERPYECTVCKKRFTR [G9Y],2.1
14,YRHQRLHTQERPYECTVCKKRFTR [G9Q],2.1
15,YRHQRLHTDERPYECTVCKKRFTR [G9D],2.35
16,YRHQRLHTKERPYECTVCKKRFTR [G9K],2.42
17,YRHQRLHTSERPYECTVCKKRFTR [G9S],2.33
18,YRHQRLHTTERPYECTVCKKRFTR [G9T],2.23
19,YRHQRLHTGERPYECTVCKKRFTM [R24M],2.68
20,YRHQRLHTGERPYECTVCKKRFTC [R24C],2.65
21,YRHQRLHTGERPYECTVCKKRFTP [R24P],2.75
22,YRHQRLHTGERPYECTVCKKRFTI [R24I],2.14
23,YRHQRLHTGERPYECTVCKKRFTF [R24F],2.57
24,YRHQRLHTGERPYECTVCKKRFTA [R24A],2.35

row,Variant,protein stability index
1,YRHQRLHTGERPYECTVCKKRFTV [R24V],2.51
2,YRHQRLHTGERPYECTVCKKRFTW [R24W],1.87
3,YRHQRLHTGERPYECTVCKKRFTT [R24T],2.26
4,YRHQRLHTGERPYECTVCKKRFTL [R24L],2.39
5,YRHQRLHTGERPYECTVCKKRFTD [R24D],2.6
6,YRHQRLHTGERPYECTVCKKRFTY [R24Y],2.1
7,YRHQRLHTGCRPYECTVCKKRFTR [E10C],2.57
8,YRHQRLHTGWRPYECTVCKKRFTR [E10W],2.34
9,YRHQRLHTGARPYECTVCKKRFTR [E10A],2.38
10,YRHQRLHTGRRPYECTVCKKRFTR [E10R],2.81
11,YRHQRLHTGGRPYECTVCKKRFTR [E10G],2.24
12,YRHQRLHTGQRPYECTVCKKRFTR [E10Q],2.54
13,YRHQRLHTGTRPYECTVCKKRFTR [E10T],2.48
14,YRHQRLHTGERPYECTVCKARFTR [K20A],1.95
15,YRHQRLHTGERPYECTVCKFRFTR [K20F],2.15
16,YRHQRLHTGERPYECTVCKCRFTR [K20C],2.2
17,YRHQRLHTGERPYECTVCKNRFTR [K20N],2.1
18,YRHQRLHTGERPYECTVCKLRFTR [K20L],1.73
19,YRIQRLHTGERPYECTVCKKRFTR [H3I],2.12
20,YRYQRLHTGERPYECTVCKKRFTR [H3Y],1.81
21,YRGQRLHTGERPYECTVCKKRFTR [H3G],2.28
22,YRNQRLHTGERPYECTVCKKRFTR [H3N],2.69
23,YRRQRLHTGERPYECTVCKKRFTR [H3R],2.44
24,YRVQRLHTGERPYECTVCKKRFTR [H3V],2.03

row,Variant,protein stability index
1,YREQRLHTGERPYECTVCKKRFTR [H3E],1.83
2,YRLQRLHTGERPYECTVCKKRFTR [H3L],1.52
3,YRFQRLHTGERPYECTVCKKRFTR [H3F],1.66
4,YRHRRLHTGERPYECTVCKKRFTR [Q4R],2.36
5,YRHWRLHTGERPYECTVCKKRFTR [Q4W],2.11
6,YRHVRLHTGERPYECTVCKKRFTR [Q4V],2.13
7,YRHKRLHTGERPYECTVCKKRFTR [Q4K],2.39
8,YRHLRLHTGERPYECTVCKKRFTR [Q4L],1.78
9,YRHTRLHTGERPYECTVCKKRFTR [Q4T],2.64
10,YRHIRLHTGERPYECTVCKKRFTR [Q4I],1.93
11,YRHQRLHTGERPYECTVCKKPFTR [R21P],2.46
12,YRHQRLHTGERPYECTVCKKKFTR [R21K],2.15
13,YRHQRLHTGERPYECTVCKKLFTR [R21L],2.02
14,YRHQRLHTGERPYECTVCKKDFTR [R21D],2.46
15,YRHQRLHTGERPYECTVCKKTFTR [R21T],1.92
16,YRHQRLHTGERPYECTVCKKIFTR [R21I],1.9
17,YRHQRLHTGERPYECTVCKKRFHR [T23H],2.78
18,YRHQRLHTGERPYECTVCKKRFYR [T23Y],2.78
19,YRHQRLHTGERPYECTVCKKRFER [T23E],2.67
20,YRHQRLHTGERPYECTVCKKRFFR [T23F],2.62
21,YRHQRLHTGERPYECTVCKKRFAR [T23A],2.93
22,YRHQRLHTGERPYECTVCKKRFSR [T23S],2.09
